Reference: publication PMC3995750, “Improved production of recombinant human Fas ligand extracellular domain in Pichia pastoris: yield enhancement using disposable culture-bag and its application to site-specific chemical modifications” (BMC Biotechnology, 2014)

T1: wild-type human Fas receptor extracellular domain fused to human IgG1-Fc domain with a thrombin cleavage site … (human, UniProt P25445 26-173)
T1 construct: human Fas receptor, extracellular domain; A thrombin cleavage site lies between the receptor part and the Fc; also called wild-type hFasRECD-T-Fc; hFasRECD-T-Fc
T1 sequence (looked up): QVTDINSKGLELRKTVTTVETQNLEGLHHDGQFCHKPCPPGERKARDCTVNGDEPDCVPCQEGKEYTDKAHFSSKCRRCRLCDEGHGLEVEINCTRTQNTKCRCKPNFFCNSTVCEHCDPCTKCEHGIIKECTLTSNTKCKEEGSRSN


What was measured:
[1] = target: T1, wild-type human Fas receptor …; assay: co-IP; receptor-mediated ligand immunoprecipitation: purified hFasLECD sample with hFasRECD-T-Fc protein and Protein A-agarose beads (immunoprecipitation kit, Roche); precipitate analysed by SDS-PAGE; settings: both partners purified
[2] = target: the molecule itself; assay: SDS-PAGE with and without 2-mercaptoethanol; partially purified NFG1CG4-hFasLECD (main peak of the 1st cation-exchange chromatography, concentrated) in sample buffer with or without 2-mercaptoethanol; inter-subunit disulfide bond

Binder | binding result [1] | binding result [2]
NFG1CG4-hFasLECD cross-linked with SUNBRIGHT DE-100MA, peak III of the size-exclusion chromatography (domain or fragment, human, UniProt P48023 139-281, looked up, cysteine in the N-terminal tag conjugated with SUNBRIGHT DE-100MA (linear polyethylene glycol of about 10 kDa with a maleimide group at either end): two subunits cross-linked by one molecule, or one subunit conjugated with one molecule; unreacted cysteines capped with N-Ethylmaleimide, human Fas ligand (281 aa), residues 139-281 with N184Q and N250Q; not shown: FLAG-GlyCys(Gly)4, N-terminal, kept) EKKELRKVAHLTGKSNSRSMPLEWEDTYGIVLLSGVKYKKGGLVIQETGLYFVYSKVYFRGQSCNNLPLSHKVYMRNSKYPQDLVMMEGKMMSYCTTGQMWARSSYLGAVFQLTSADHLYVNVSELSLVNFEESQTFFGLYKL | binds | –
NFG1CG4-hFasLECD cross-linked with SUNBRIGHT DE-100MA, peak II of the size-exclusion chromatography (domain or fragment, human, UniProt P48023 139-281, looked up, cysteine in the N-terminal tag conjugated with SUNBRIGHT DE-100MA (linear polyethylene glycol of about 10 kDa with a maleimide group at either end): two subunits cross-linked by one molecule, or one subunit conjugated with one molecule; unreacted cysteines capped with N-Ethylmaleimide, human Fas ligand (281 aa), residues 139-281 with N184Q and N250Q; not shown: FLAG-GlyCys(Gly)4, N-terminal, kept) EKKELRKVAHLTGKSNSRSMPLEWEDTYGIVLLSGVKYKKGGLVIQETGLYFVYSKVYFRGQSCNNLPLSHKVYMRNSKYPQDLVMMEGKMMSYCTTGQMWARSSYLGAVFQLTSADHLYVNVSELSLVNFEESQTFFGLYKL | binds | –
N-glycan trimmed tag-free human Fas ligand extracellular domain (139-281, N184Q, N250Q) (domain or fragment, UniProt P48023 139-281, looked up, N-glycans trimmed with Endo Hf, human Fas ligand (281 aa), residues 139-281 with N184Q and N250Q; Same chain as m1 after Endo Hf digestion; also called N-glycan trimmed tag-free hFasLECD; source: Pichia pastoris GS115 (Mut+), secreted, purified; digested with Endo Hf, Con A-agarose flow-through, Mono S cation-exchange) EKKELRKVAHLTGKSNSRSMPLEWEDTYGIVLLSGVKYKKGGLVIQETGLYFVYSKVYFRGQSCNNLPLSHKVYMRNSKYPQDLVMMEGKMMSYCTTGQMWARSSYLGAVFQLTSADHLYVNVSELSLVNFEESQTFFGLYKL | binds | –
NFG1CG4-tagged human Fas ligand extracellular domain (139-281, N184Q, N250Q), not conjugated (domain or fragment, UniProt P48023 139-281, looked up, cysteine in the N-terminal tag, partly in a possible inter-subunit disulfide bond, human Fas ligand (281 aa), residues 139-281 with N184Q and N250Q; Made from the NFG5-hFasLECD gene by an insertion mutation that adds a cysteine in the (Gly)5 region of the tag; also called NFG1CG4-hFasLECD; source: Pichia pastoris GS115 (Mut+), secreted; 40-fold concentrated culture supernatant; partially purified by cation-exchange chromatography; not shown: FLAG-GlyCys(Gly)4, N-terminal, kept) EKKELRKVAHLTGKSNSRSMPLEWEDTYGIVLLSGVKYKKGGLVIQETGLYFVYSKVYFRGQSCNNLPLSHKVYMRNSKYPQDLVMMEGKMMSYCTTGQMWARSSYLGAVFQLTSADHLYVNVSELSLVNFEESQTFFGLYKL | – | binds
N-terminal FLAG-(Gly)5 tagged human Fas ligand extracellular domain (aa 139-281, N184Q, N250Q) (domain or fragment, UniProt P48023 139-281, looked up, human Fas ligand (281 aa), residues 139-281 with N184Q and N250Q; Positive control of the co-immunoprecipitation; also called NFG5-hFasLECD; not shown: FLAG-(Gly)5, N-terminal, kept) EKKELRKVAHLTGKSNSRSMPLEWEDTYGIVLLSGVKYKKGGLVIQETGLYFVYSKVYFRGQSCNNLPLSHKVYMRNSKYPQDLVMMEGKMMSYCTTGQMWARSSYLGAVFQLTSADHLYVNVSELSLVNFEESQTFFGLYKL | binds | –

Further lines, with some results ahead:

binding result [1] | Binder | binding result [2]
binds | tag-free human Fas ligand extracellular domain (139-281, N184Q, N250Q), N-glycan untrimmed (domain or fragment, UniProt P48023 139-281, looked up, remaining N-glycans, untrimmed, human Fas ligand (281 aa), extracellular domain with residues 103-138 deleted, i.e. residues 139-281, with N184Q and N250Q; Secreted with the S. cerevisiae alpha-factor prepro signal; also called tag-free hFasLECD; N-glycan untrimmed tag-free hFasLECD; source: Pichia pastoris GS115 (Mut+), secreted, purified (two rounds of cation-exchange chromatography)) EKKELRKVAHLTGKSNSRSMPLEWEDTYGIVLLSGVKYKKGGLVIQETGLYFVYSKVYFRGQSCNNLPLSHKVYMRNSKYPQDLVMMEGKMMSYCTTGQMWARSSYLGAVFQLTSADHLYVNVSELSLVNFEESQTFFGLYKL | –
binds | SUNBRIGHT ME-050MA conjugated NFG1CG4-hFasLECD (domain or fragment, human, UniProt P48023 139-281, looked up, cysteine in the N-terminal tag conjugated with SUNBRIGHT ME-050MA (linear methoxy polyethylene glycol of about 5 kDa with one maleimide group); a small fraction of subunits not conjugated, human Fas ligand (281 aa), residues 139-281 with N184Q and N250Q; also called SUNBRIGHT ME-050MA adduct of NFG1CG4-hFasLECD; not shown: FLAG-GlyCys(Gly)4, N-terminal, kept) EKKELRKVAHLTGKSNSRSMPLEWEDTYGIVLLSGVKYKKGGLVIQETGLYFVYSKVYFRGQSCNNLPLSHKVYMRNSKYPQDLVMMEGKMMSYCTTGQMWARSSYLGAVFQLTSADHLYVNVSELSLVNFEESQTFFGLYKL | –
binds | N-Ethylmaleimide conjugated NFG1CG4-hFasLECD (domain or fragment, human, UniProt P48023 139-281, looked up, cysteine in the N-terminal tag conjugated with N-Ethylmaleimide, human Fas ligand (281 aa), residues 139-281 with N184Q and N250Q; also called N-Ethylmaleimide adduct of NFG1CG4-hFasLECD; not shown: FLAG-GlyCys(Gly)4, N-terminal, kept) EKKELRKVAHLTGKSNSRSMPLEWEDTYGIVLLSGVKYKKGGLVIQETGLYFVYSKVYFRGQSCNNLPLSHKVYMRNSKYPQDLVMMEGKMMSYCTTGQMWARSSYLGAVFQLTSADHLYVNVSELSLVNFEESQTFFGLYKL | –
